Molecular target: recombinant CypA (UniProt P62937)
Test: cell-based or functional assay

Chain of recombinant CypA (P62937 whole entry): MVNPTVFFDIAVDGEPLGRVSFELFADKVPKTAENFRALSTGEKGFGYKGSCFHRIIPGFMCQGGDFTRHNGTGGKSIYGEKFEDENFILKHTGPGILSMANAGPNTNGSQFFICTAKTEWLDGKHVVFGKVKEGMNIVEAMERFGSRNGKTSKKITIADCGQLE

| CypA PPIase IC50 [nM] | Substance |
| --- | --- |
| 0.8 | DEBIO-025, 2 (peptide) |
| 9.7 | Cyclosporine A, 1 (peptide) |
